Measurements reported in US20160009823A1 (Hoffmann-La Roche, published 2016).

T1: human VEGFR2-Fc
T1 chain: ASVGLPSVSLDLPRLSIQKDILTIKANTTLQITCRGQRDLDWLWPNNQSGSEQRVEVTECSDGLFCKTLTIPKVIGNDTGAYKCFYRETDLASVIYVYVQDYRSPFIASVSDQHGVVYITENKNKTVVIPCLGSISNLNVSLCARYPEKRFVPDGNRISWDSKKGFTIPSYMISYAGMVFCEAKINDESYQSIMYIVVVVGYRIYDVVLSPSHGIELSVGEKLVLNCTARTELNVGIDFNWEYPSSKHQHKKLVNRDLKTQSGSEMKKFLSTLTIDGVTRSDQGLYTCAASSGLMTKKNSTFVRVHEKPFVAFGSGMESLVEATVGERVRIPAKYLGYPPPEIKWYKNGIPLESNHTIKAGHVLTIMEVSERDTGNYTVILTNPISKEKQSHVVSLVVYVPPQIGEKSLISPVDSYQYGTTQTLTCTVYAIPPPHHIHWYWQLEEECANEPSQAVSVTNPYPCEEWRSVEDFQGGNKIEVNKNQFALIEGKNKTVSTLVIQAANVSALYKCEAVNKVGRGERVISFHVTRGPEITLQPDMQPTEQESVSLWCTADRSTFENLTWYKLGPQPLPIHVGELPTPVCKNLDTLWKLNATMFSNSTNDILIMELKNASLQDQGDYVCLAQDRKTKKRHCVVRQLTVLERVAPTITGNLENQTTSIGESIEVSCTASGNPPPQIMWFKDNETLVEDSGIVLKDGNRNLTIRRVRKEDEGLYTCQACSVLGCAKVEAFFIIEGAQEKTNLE

T2: mouse VEGFR2-Fc
T2 chain: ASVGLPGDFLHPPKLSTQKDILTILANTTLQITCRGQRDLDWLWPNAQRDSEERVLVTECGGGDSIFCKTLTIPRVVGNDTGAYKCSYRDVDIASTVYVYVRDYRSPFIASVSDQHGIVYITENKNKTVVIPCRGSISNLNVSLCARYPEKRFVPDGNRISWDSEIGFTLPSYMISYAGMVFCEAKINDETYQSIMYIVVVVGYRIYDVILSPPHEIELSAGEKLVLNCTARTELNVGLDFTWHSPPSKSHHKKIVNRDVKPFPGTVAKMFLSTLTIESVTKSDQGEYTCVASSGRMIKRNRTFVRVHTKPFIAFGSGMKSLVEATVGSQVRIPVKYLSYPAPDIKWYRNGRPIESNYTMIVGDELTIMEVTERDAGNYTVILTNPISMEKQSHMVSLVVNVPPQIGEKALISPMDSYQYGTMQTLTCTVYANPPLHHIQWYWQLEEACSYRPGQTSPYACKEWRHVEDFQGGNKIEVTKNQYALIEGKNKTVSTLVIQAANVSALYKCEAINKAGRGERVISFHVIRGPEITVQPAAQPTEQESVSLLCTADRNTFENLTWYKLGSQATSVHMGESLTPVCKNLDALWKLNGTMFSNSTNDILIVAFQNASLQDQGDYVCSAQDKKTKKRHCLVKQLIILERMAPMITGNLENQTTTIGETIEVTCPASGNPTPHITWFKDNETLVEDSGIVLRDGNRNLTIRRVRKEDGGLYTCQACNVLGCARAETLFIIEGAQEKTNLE


Assays:
[1] = target: T3, recombinantly produced soluble extracellular domain of the RTK Her2 (UniProt P04626 23-652); assay: SPR (BiaCore), zoom; AKH-5 captured, Her2 and siRNA-DIG in both orders
T3 construct: extracellular domain; also called Her2-ECD; Her2ECD

[2] = target: T1, human VEGFR2-Fc; assay: SPR, drawn table under the head 'Affinity for DIG-siRNA' with a Capture column
[3] = target: T2, mouse VEGFR2-Fc; assay: as above
[4] = target: mono-digoxygenated protein DIG-myoglobin; assay: SPR (Biacore), DIG-Myoglobin as analyte
[5] = target: mono-digoxygenated protein DIG-myoglobin; assay: SPR (Biacore), DIG-Myoglobin as analyte, replicate
[6] = target: digoxygenated protein Dig-BP4; assay: SPR (Biacore), antibody captured by anti-human IgG, DIG-BP4 as analyte
[7] = target: T4, human CD33-Fc fusion (human, UniProt P20138 18-259); assay: SPR, <CD33>-<DIG> on human CD33-Fc fusion as ligand, then DIG-siRNA
T4 construct: not shown: Fc part not described

[8] = target: mono-digoxygenated protein DIG-myoglobin; assay: SPR (Biacore), DIG-Myoglobin as analyte; remark: listed apart in the source
[9] = target: digoxygenated protein Dig-BP4; assay: SPR (Biacore); unit differs from Table 3 (33 pM)
[10] = target: digoxygenated protein Dig-BP4; assay: SPR (Biacore), antibody captured by anti-mouse IgG, DIG-BP4 as analyte

Sequence of mono-digoxygenated protein DIG-myoglobin (P68082 2-154): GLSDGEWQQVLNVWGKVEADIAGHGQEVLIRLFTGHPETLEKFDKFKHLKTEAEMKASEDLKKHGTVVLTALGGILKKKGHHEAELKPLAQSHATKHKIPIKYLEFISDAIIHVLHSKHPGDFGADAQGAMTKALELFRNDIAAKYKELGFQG
T4 sequence (P20138 18-259): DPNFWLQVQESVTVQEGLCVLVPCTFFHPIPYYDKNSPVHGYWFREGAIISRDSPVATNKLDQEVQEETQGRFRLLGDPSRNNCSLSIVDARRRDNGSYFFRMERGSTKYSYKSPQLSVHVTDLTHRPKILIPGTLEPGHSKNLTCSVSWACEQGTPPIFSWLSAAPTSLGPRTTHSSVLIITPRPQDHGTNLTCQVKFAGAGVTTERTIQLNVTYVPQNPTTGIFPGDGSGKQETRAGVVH

Binder | Kd [4] | koff [4] | kon [4] | Kd [5] | koff [5] | kon [5] | other results
AKH-5 (bispecific antibody, also called <HER2> scFv-PExII-<DIG> scFv-His6; drawn as <Her2> - PExI - <DIG> - 6xHis) QVQLLQSGAELKKPGESLKISCKGSGYSFTSYWIAWVRQMPGKGLEYMGLIYPGDSDTKYSPSFQGQVTISVDKSVSTAYLQWSSLKPSDSAVYFCARHDVGYCSSSNCAKWPEYFQHWGQGTLVTVSSGGGGSGGGGSGGGGSGGGGSQSVLTQPPSVSAAPGQKVTISCSGSSSNIGNNYVSWYQQLPGTAPKLLIYGHTNRPAGVPDRFSGSKSGTSASLAISGFRSEDEADYYCASWDYTLSGWVFGGGTKLTVLGGGGGSGGSLAALTAHQACHLPLETFTRHRQPRGWEQLEQCGYPVQRLVALYLAARLSWNQVDQVIRNALASPGSGGDLGEAIREQPEQARLALTLAAAESERFVRQGTGNDGGGGSGGGGSQVQLVESGGGLVKPGGSLRLSCAASGFTFSDYAMSWIRQAPGKCLEWVSSINIGATYIYYADSVKGRFTISRDNAKNSLYLQMNSLRAEDTAVYYCARPGSPYEYDKAYYSMAYWGQGTTVTVSSGGGGSGGGGSGGGGSGGGGSDIQMTQSPSSLSASVGDRVTITCRASQDIKNYLNWYQQKPGKAPKLLIYYSSTLLSGVPSRFSGSGSGTDFTLTISSLQPEDFATYYCQQSITLPPTFGCGTKVEIKHHHHHH | – | – | – | – | – | – | binding result [1]: binds
<VEGFR2(D1F7)-DIG>_001 (bispecific antibody, human IgG1, kappa) heavy: not shown light: QSVLTQPPSASGTPGQRVTISCSGSTSNIGTNTANWFQQLPGTAPKLLIHNNNQRPSGVPDRFSGSKSGTSASLAISGLQSEDEADYYCAAWDDSLNGHWVFGGGTKLTVLRTVAAPSVFIFPPSDEQLKSGTASVVCLLNNFYPREAKVQWKVDNALQSGNSQESVTEQDSKDSTYSLSSTLTLSKADYEKHKVYACEVTHQGLSSPVTKSFNRGEC | – | – | – | – | – | – | binding result [2]: binds; binding result [3]: binds
recombinant humanized <Dig> IgG antibody (antibody, V domains shown, also called hu<DIG> IgG; <DIG>hu2; not shown: hinge-CH2-CH3 of human IgG1) VH: QVQLVESGGGLVKPGGSLRLSCAASGFTFSDYAMSWIRQAPGKGLEWVSSINIGATYIYYADSVKGRFTISRDNAKNSLYLQMNSLRAEDTAVYYCARPGSPYEYDKAYYSMAYWGQGTTVTVSS VL: DIQMTQSPSSLSASVGDRVTITCRASQDIKNYLNWYQQKPGKAPKLLIYYSSTLLSGVPSRFSGSGSGTDFTLTISSLQPEDFATYYCQQSITLPPTFGGGTKVEIKR | 15800 pM | 0.00982 s⁻¹ | 620000 M⁻¹ s⁻¹ | 11800 pM | 0.00881 s⁻¹ | 749000 M⁻¹ s⁻¹ | Kd [6]: < 76 pM
bispecific <CD33>-<DIG> antibody (bispecific antibody, human IgG1, kappa) heavy: not shown light: DIQLTQSPSTLSASVGDRVTITCRASESLDNYGIRFLTWFQQKPGKAPKLLMYAASNQGSGVPSRFSGSGSGTEFTLTISSLQPDDFATYYCQQTKEVPWSFGQGGTKVEVKEIKRTVAAPSVFIFPPSDEQLKSGTASVVCLLNNFYPREAKVQWKVDNALQSGNSQESVTEQDSKDSTYSLSSTLTLSKADYEKHKVYACEVTHQGLSSPVTKSFNRGEC | – | – | – | – | – | – | binding result [7]: binds
hybridoma-derived murine <Dig> 19-11 antibody (antibody, V domains shown, also called murine DIG-IgG 19-11; <DIG>M-19-11) VH: EVQLVESGGGLVKPGGSLKLSCAVSGFTFSDYAMSWIRQTPENRLEWVASINIGATYAYYPDSVKGRFTISRDNAKNTLFLQMSSLGSEDTAMYYCARPGSPYEYDKAYYSMAYWGPGTSVTVSS VL: DVQMTQSTSSLSASLGDRVTISCRASQDIKNYLNWYQQKPGGTVKLLIYYSSTLLSGVPSRFSGRGSGTDFSLTITNLEREDIATYFCQQSITLPPTFGGGTKLEIK | 386 pM | 0.000676 s⁻¹ | 1.75e+06 M⁻¹ s⁻¹ | 295 pM | 0.000675 s⁻¹ | 2.28e+06 M⁻¹ s⁻¹ | fold better affinity than <DIG>-hu2 and the disulfide-stabilized <DIG> scFv [8]: ~100 fold; Kd [9]: 33000 pM; Kd [10]: 33 pM
